From US20260062456A1 (ALPINE IMMUNE SCIENCES, published 2026)

Tests used:
[1] = target: human PD-1 stably expressed on Jurkat/IL-2 reporter cells (Jurkat/PD-1 cells) (human, UniProt Q15116 21-288); test: flow cytometry, Jurkat/PD-1 cells, 20 nM
[2] = target: T1, CD96 (UniProt P40200 22-585, limits assumed); test: flow cytometry, cells expressing CD96
T1 sequence (looked up): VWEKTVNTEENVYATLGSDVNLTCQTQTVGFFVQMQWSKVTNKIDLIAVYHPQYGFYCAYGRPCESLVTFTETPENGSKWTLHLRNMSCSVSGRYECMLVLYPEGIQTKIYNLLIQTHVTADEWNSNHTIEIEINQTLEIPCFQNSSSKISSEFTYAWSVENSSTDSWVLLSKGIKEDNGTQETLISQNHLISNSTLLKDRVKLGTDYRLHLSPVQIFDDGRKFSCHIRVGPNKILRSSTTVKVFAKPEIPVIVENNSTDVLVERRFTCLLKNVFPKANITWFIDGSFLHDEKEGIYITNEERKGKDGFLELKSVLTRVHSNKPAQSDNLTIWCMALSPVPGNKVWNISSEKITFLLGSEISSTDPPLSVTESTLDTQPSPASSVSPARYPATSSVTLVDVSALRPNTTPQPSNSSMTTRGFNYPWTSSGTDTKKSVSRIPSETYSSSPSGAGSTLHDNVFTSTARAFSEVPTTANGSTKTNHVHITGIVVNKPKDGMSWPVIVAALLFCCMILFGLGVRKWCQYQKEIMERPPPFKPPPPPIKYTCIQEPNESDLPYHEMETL

[3] = target: T2, human TIGIT stably expressed on Jurkat/IL-2 reporter cells (Jurkat/TIGIT cells) (human, UniProt Q495A1 22-244); test: flow cytometry, Jurkat/TIGIT cells, 20 nM
T2 sequence: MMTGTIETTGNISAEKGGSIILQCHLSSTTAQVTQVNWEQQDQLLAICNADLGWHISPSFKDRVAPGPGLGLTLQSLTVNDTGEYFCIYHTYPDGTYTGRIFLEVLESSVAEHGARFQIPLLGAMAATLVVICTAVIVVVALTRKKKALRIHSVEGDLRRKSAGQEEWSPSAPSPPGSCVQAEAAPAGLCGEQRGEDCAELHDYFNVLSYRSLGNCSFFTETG

[4] = target: CD28 (UniProt P10747 19-220); test: flow cytometry, HEK293 cells transfected with CD28

Chain of human PD-1 stably expressed on Jurkat/IL-2 reporter cells (Jurkat/PD-1 cells) (Q15116 21-288): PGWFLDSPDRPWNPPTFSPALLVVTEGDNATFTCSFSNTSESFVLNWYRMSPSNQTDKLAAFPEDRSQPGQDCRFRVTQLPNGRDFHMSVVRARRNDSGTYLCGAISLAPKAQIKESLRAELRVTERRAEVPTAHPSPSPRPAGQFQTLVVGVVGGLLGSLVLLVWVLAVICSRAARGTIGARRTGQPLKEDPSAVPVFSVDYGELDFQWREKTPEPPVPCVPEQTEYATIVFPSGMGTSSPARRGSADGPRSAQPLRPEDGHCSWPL

B1: Wild-type CD155-ECD-Fc (Fc fusion, not shown: a dimerising Fc or GST)
chain: WPPPGTGDVVVQAPTQVPGFLGDSVTLPCYLQVPNMEVTHVSQLTWARHGESGSMAVFHQTQGPSYSESKRLEFVAARLGAELRNASLRMFGLRVEDEGNYTCLFVTFPQGSRSVDIWLRVLAKPQNTAEVQKVQLTGEPVPMARCVSTGGRPPAQITWHSDLGGMPNTSQVPGFLSGTVTVTSLWILVPSSQVDGKNVTCKVEHESFEKPQLLTVNLTVYYPPEVSISGYDNNWYLGQNEATLTCDARSNPEPTGYNWSTTMGPLPPFAVAQGAQLLIRPVDKPINTTLICNVTNALGARQAELTVQVKEGPPSEHSGISRN
[1]
  MFI at 20 nM: 511 MFI

B2: CD112-IgV (Fc fusion, not shown: a dimerising Fc or GST)
chain: QDVRVQVLPEVRGQLGGTVELPCHLLPPVPGLYISLVTWQRPDAPANHQNVAAFHPKMGPSFPSPKPGSERLSFVSAKQSTGQDTEAELQDATLALHGLTVEDEGNYTCEFATFPKGSVRGMTWLRV
[2]
  MFI at 25 nM: 1170 MFI

B3: PD-L1/CD155 Stack 1 (Fc fusion)
chain: WPPPGTGDVVVQAPTQVSGFLGDSVTLPCYLQVPNMEVTHVSQLTWARHGESGSMAVFHQTQGPWYAESKRLEFVAARLGAELRNASLRMFGLRVEDEGNYTCQFVTFPQRSRSVDIWLRVLGGGGSGGGGSEPKSSDKTHTCPPCPAPEAEGAPSVFLFPPKPKDTLMISRTPEVTCVVVDVSHEDPEVKFNWYVDGVEVHNAKTKPREEQYNSTYRVVSVLTVLHQDWLNGKEYKCKVSNKALPAPIEKTISKAKGQPREPQVYTLPPSRDELTKNQVSLTCLVKGFYPSDIAVEWESNGQPENNYKTTPPVLDSDGSFFLYSKLTVDKSRWQQGNVFSCSVMHEALHNHYTQKSLSLSPGKGGGGSGGGGSGGGGSFTVTVPKDLYVVEYGSNMTIECKFPVEKQLDLAALIVYWEMEGKDIIQFVHGEEDQKAQHSSYRQRARLLKDQLSLGNAALQITDVKLQDAGVYRCMISYGGGADYKRITVKVNA
[3]
  MFI at 20 nM: 80700 MFI
[1]
  MFI at 20 nM: 61800 MFI

B4: PD-L1/CD155 Stack 2 (Fc fusion)
chain: FTVTVPKDLYVVEYGSNMTIECKFPVEKQLDLAALIVYWEMEGKDIIQFVHGEEDQKAQHSSYRQRARLLKDQLSLGNAALQITDVKLQDAGVYRCMISYGGGADYKRITVKVNAGGGGSGGGGSEPKSSDKTHTCPPCPAPEAEGAPSVFLFPPKPKDTLMISRTPEVTCVVVDVSHEDPEVKFNWYVDGVEVHNAKTKPREEQYNSTYRVVSVLTVLHQDWLNGKEYKCKVSNKALPAPIEKTISKAKGQPREPQVYTLPPSRDELTKNQVSLTCLVKGFYPSDIAVEWESNGQPENNYKTTPPVLDSDGSFFLYSKLTVDKSRWQQGNVFSCSVMHEALHNHYTQKSLSLSPGKGGGGSGGGGSGGGGSWPPPGTGDVVVQAPTQVSGFLGDSVTLPCYLQVPNMEVTHVSQLTWARHGESGSMAVFHQTQGPWYAESKRLEFVAARLGAELRNASLRMFGLRVEDEGNYTCQFVTFPQRSRSVDIWLRVL
[3]
  MFI at 20 nM: 36500 MFI
[1]
  MFI at 20 nM: 69800 MFI

B5: PD-L1/CD155 Stack 4 (Fc fusion)
chain: FTVTVPKDLYVVEYGSNMTIECKFPVEKQLDLAALIVYWEMEGKDIIQFVHGEEDQKAQHSSYRQRARLLKDQLSLGNAALQITDVKLQDAGVYRCMISYGGGADYKRITVKVNAGGGGSGGGGSGGGGSWPPPGTGDVVVQAPTQVSGFLGDSVTLPCYLQVPNMEVTHVSQLTWARHGESGSMAVFHQTQGPWYAESKRLEFVAARLGAELRNASLRMFGLRVEDEGNYTCQFVTFPQRSRSVDIWLRVLGGGGSGGGGSEPKSSDKTHTCPPCPAPEAEGAPSVFLFPPKPKDTLMISRTPEVTCVVVDVSHEDPEVKFNWYVDGVEVHNAKTKPREEQYNSTYRVVSVLTVLHQDWLNGKEYKCKVSNKALPAPIEKTISKAKGQPREPQVYTLPPSRDELTKNQVSLTCLVKGFYPSDIAVEWESNGQPENNYKTTPPVLDSDGSFFLYSKLTVDKSRWQQGNVFSCSVMHEALHNHYTQKSLSLSPGK
[3]
  MFI at 20 nM: 60500 MFI
[1]
  MFI at 20 nM: 78000 MFI

B6: PD-L1/CD155 Stack 3 (Fc fusion)
chain: WPPPGTGDVVVQAPTQVSGFLGDSVTLPCYLQVPNMEVTHVSQLTWARHGESGSMAVFHQTQGPWYAESKRLEFVAARLGAELRNASLRMFGLRVEDEGNYTCQFVTFPQRSRSVDIWLRVLGGGGSGGGGSGGGGSFTVTVPKDLYVVEYGSNMTIECKFPVEKQLDLAALIVYWEMEGKDIIQFVHGEEDQKAQHSSYRQRARLLKDQLSLGNAALQITDVKLQDAGVYRCMISYGGGADYKRITVKVNAGGGGSGGGGSEPKSSDKTHTCPPCPAPEAEGAPSVFLFPPKPKDTLMISRTPEVTCVVVDVSHEDPEVKFNWYVDGVEVHNAKTKPREEQYNSTYRVVSVLTVLHQDWLNGKEYKCKVSNKALPAPIEKTISKAKGQPREPQVYTLPPSRDELTKNQVSLTCLVKGFYPSDIAVEWESNGQPENNYKTTPPVLDSDGSFFLYSKLTVDKSRWQQGNVFSCSVMHEALHNHYTQKSLSLSPGK
[3]
  MFI at 20 nM: 81800 MFI
[1]
  MFI at 20 nM: 47300 MFI

B7: WT CD80 ECD Fc (Fc fusion, not shown: a dimerising Fc or GST)
chain: VIHVTKEVKEVATLSCGHNVSVEELAQTRIYWQKEKKMVLTMMSGDMNIWPEYKNRTIFDITNNLSIVILALRPSDEGTYECVVLKYEKDAFKREHLAEVTLSVKADFPTPSISDFEIPTSNIRRIICSTSGGFPEPHLSWLENGEELNAINTTVSQDPETELYAVSSKLDFNMTTNHSFMCLIKYGHLRVNQTFNWNTTKQEHFPDN
[4]
  MFI at 66.6 nM: 3070 MFI
